Test results from the DeepSol protein solubility set.

Experiment: soluble on expression in E. coli; label from the status in PepcDB or PDB records

Row | Sequence | soluble on expression in E. coli
1 | MTNFIDRRLNSKNKSTVNRQRFLRRYKNQIKKSVSDAINQRGVTDIDSGESIVIPNRDLSEPTFHQGDGGVKDRVHPGNDQFSTGDRIPRPPKQQGQGGGQGDASDSGEGEDDFTFSISKEEYLNLLFEDLELPNLERNQLDKLIEYKTVRSGFCAEGVASNIDIVKSLQGSIARRIAMTASKRKQIKVLELELQALNNDKHDNIQRKRDLIAEIETLKNKISKVPFIDTFDLRFRNYAKQAVPTSKAVMFCLMDVSGSMDQATKEMAKRFYILLYLFLSRTYKNIDVVYIRHHTQAKEVDEHEFFYSQETGGTIASSALELMNDIITERYNDNQWNIYGAQASDGDNWADDSPRCQALLEQQILPKSRYFSYIEITQRAHQTLWKHYQQVEESHTNFAMQHIKSVADIYPVFRKFFKKNTKSAALEHHHHHH | soluble
2 | MGSDKIHHHHHHAAYGEDNHKKERHPDDRKINVGIRGGFNSSMFLVSDLKIKDVTIDEIQNNYKIGYFGALFMRLNMKRHFIQPEISYNISRCEISFDKLGSQHPDIEPDYASVSSTIHSIDFPLLYGYHVVKQGPYTMSLFAGPKLRYLWNKKNKITFENFDQQGIHEKLYPFNVSAVIGVSVNISRIFFDFRYEQGLHNLSKSVTYDNIDMEGRPEVSNITFRRRDNVLSFSLGVIF | not soluble
3 | MGSDKIHHHHHHMISKLAEIVGEEWVISGDEAKLYSYPAFIPLKIEPPVVVLPGSEEEVISLVNFLNENNIKYIVRGSGTSLSGATTPTQGEVVISLTRLNRIYSLDNFEITVGPGLANFLINKTLGNSNLFYAPDPSSYVVSSIGGNISHDSGGMHTPKYGTTFDSIIRLKVLLSNGHVEEIGSSNFFDPTSIFVGAEGTLGVILRATLRLFPKPEVSKTILASFNSIDDAGKAVVSVYKAGVTPAAMEFLDKNSIIAIENTQYKANYPMAEAILLIELDGYSVNVEEEEVRVVSAIRNNNGEVFIPKDEEEKNRWWWGRKGAFPSFAYYSPAYLTLDANVPRSTLPTMLRFTYEISKKYGLPVANSFHAGDGTLHPLIGFDPKNADETIKAIKAAEEITKLAIKVGGVPSGEHGIGIEKIKFMKLYYSEDDLTLMRRLKATFDPKRLLNPCKLIPPAKNEICNTVNRIHTYLLEGDI | not soluble
4 | MAHHHHHHMIEDNIDENCQIYLNPKNWLKEFENTKINENDINEVLMNYFCVHRMYDVAKEFQKESNVKPDMPINTVKIRYLIQNEIMNNKIEEAIEHINNLDKGILKKHKDLVFFLKKQQLLKLILNNNINEAIIYSQQELASYVKEKPSLINEIDDVMMLMAYQDFNNEEAKNLIQKIEKKKNTLKRIDDIILNYYNVDSESTLEYMVKNVFFTQNVLSSKYPCSVPKIKNLKSGYIEYYEKYKKKKRKSSSKKYRSKDKDKVDKHDKKNVDNIVKDFDVTNDEEYRSV | not soluble
5 | MSLAHIRTRETYGTRRLQTELAENGIIVGRDRLARLRKELRLRCKQKRKFRATTNPNHNLPVAPNLLNQTFAPTAPNQVWVADLTYVATQEGWLYLAGIKDVYTCEIVGYAMGERMTKELTGKALFMALRSQRPPAGLIHHSDRGSQYCAYDYRVIQEQSGLKTSMSRKGNCYDNAPMESFWGTLKNESLSHYRFNNRDEAISVIREYIEIFYNRQRRHSRLGNISPAAFRENIIRWLLKKRTNGSVRYCQYTSKVAMIYIEQLELIHKSGDVLYPVKITRKSSGKTAFHLVPFGLNKTHDLLEVEDASEAIRLVIDERHSIRCSTLTATITNKKGKRIKRTGIYSIKGVNIKEYNVREGHHHHHH | not soluble
6 | MWPAIIQQLSEQLGKDFHLVEKEKVHGGDINECFMVSDGIDRYFVKTNQREYLTKFTAEVENLRVMRESNTVQVPEYILHGTSKTHAYLVLNYLATKPLDDAERSYEFGVQLANLHRWGEQKEFGFDIDNYIGATVQPNPWHKKWALFFAEQRIGWQLQLMQEKGVNLTNINEFVEMVKTRLANHSPRPSLLHGDLWFGNVANIVNGPLCFDPACYWGDRECDIALAEWFGGFQPEFFQGYESVWPLDWGYEERKDIYNLYHVLNHYNQFGGHYLDEAQKLIEKILSYLEHHHHHH | not soluble
7 | MVIVLVVDSFKDTSNGTSMTAFRFFEALKKRGHVMRVVAPHVDNLGSEEEGYYNLKERYIPLVTEISHKQHILFAKPDEKILRKAFKGADMIHTYLPFLLEKTAVKIAREMQVPYIGSFHLQPEHISYNMKLGWFSWFNMMLFSWFKSSHYRYIHHIHCPSKFIVEELEKYNYGGKKYAISNGFDPMFRFEHPQKSLFDTTPFKIAMVGRYSNEKNQSVLIKAVALSKYKQDIVLLLKGKGPDEKKIKLLAQKLGVKAEFGFVNSNELLEILKTCTLYVHAANVESEAIACLEAISVGIVPVIANSPLSATRQFALDERSLFEPNNAKDLSAKIDWWLENKLERERMQNEYAKSALNYTLENSVIQIEKVYEEAIRDFKNNPHLFKTLSLEHHHHHH | soluble
